Reference: CN107773755A

Columns and labels:
抗体BA03-A [1] = test: binding ELISA on coated BA03-A, relative activity vs reference; formulations F1-F11 at T0
抗体BA03-A [2] = test: binding ELISA on coated BA03-A, relative activity vs reference; formulation F3 after 8 weeks at 40 C
抗体BA03-A [3] = test: binding ELISA on coated BA03-A, relative activity vs reference; formulations after 4 weeks at 40 C
抗体BA03-A [4] = test: binding ELISA on coated BA03-A, relative activity vs reference; formulation F7 after 8 weeks at 40 C
抗体BA03-A [5] = test: binding ELISA on coated BA03-A, relative activity vs reference; formulation F8 after 8 weeks at 40 C
抗体BA03-A [6] = test: binding ELISA on coated BA03-A, relative activity vs reference; formulations after 8 weeks at 2-8 C

B1: 抗体BA03 (重组人源化抗表皮生长因子受体单克隆抗体) (antibody, V domains shown)
VH: QVQLQESGPGLVKPSETLSLTCTVSGFSLSNYDVHWVRQAPGKGLEWLGVIWSGGNTDYNTPFTSRLTISVDTSKNQFSLKLSSVTAADTAVYYCARALDYYDYEFAYWGQGTLVTVSS
VL: EIVLTQSPDFQSVTPKEKVTITCRASQSIGTNIHWYQQKPDQSPKLLIKYASESISGIPSRFSGSGSGTDFTLTINSLEAEDAATYYCQQNNEWPTSFGQGTKLEIK
Question: With B1 as the binder, how does the 生物活性 (Binding elisa, % relative to the reference) (抗体BA03-A [1]) read?
Answer: 97.1 to 105%

Question: And the 活性 (Binding elisa, % relative to the reference) (抗体BA03-A [2])?
Answer: 89.7%

Question: And the 生物活性 (Binding elisa, % relative to the reference) (抗体BA03-A [3])?
Answer: 47.3 to 102%

Question: And the 活性 (Binding elisa, % relative to the reference) (抗体BA03-A [4])?
Answer: 55.2%

Question: And the 活性 (Binding elisa, % relative to the reference) (抗体BA03-A [5])?
Answer: 91.7%

Question: What about the 结合活性 (Binding elisa, % relative to the reference) (抗体BA03-A [6]) of the same binder?
Answer: 93.3 to 111%
